Key:
Experiment in all cases: cell_activity
[1] = test system: ZFN 34472 (synthetic); settings: pair 34472/34473, A-genome; B 100300, D 87770; wheat protoplasts
[2] = test system: ZFN 34482 (synthetic); settings: pair 34482/34483, A-genome; B 33888, D 28719; wheat protoplasts
[3] = test system: ZFN 34476 (synthetic); settings: pair 34476/34477, A-genome; B 56001, D 44459; wheat protoplasts
[4] = test system: ZFN 34470 (synthetic); settings: pair 34470/34471, A-genome; B 156139, D 134694; wheat protoplasts
[5] = test system: ZFN 34480 (synthetic); settings: pair 34480/34481, A-genome; B 11946, D 11790; wheat protoplasts
[6] = test system: ZFN 34483 (synthetic); settings: pair 34482/34483, A-genome; B 33888, D 28719; wheat protoplasts
[7] = test system: ZFN 34474 (synthetic); settings: pair 34474/34475, A-genome; B 251142, D 202711; wheat protoplasts
[8] = test system: ZFN 34473 (synthetic); settings: pair 34472/34473, A-genome; B 100300, D 87770; wheat protoplasts
[9] = test system: ZFN 29730 (synthetic); settings: pair 29732/29730, D-genome, donor pDAS000152 10:1, SEC protoplasts; A 6717, B 6306
[10] = test system: ZFN 34478 (synthetic); settings: pair 34478/34479, A-genome; B 2731, D 3069; wheat protoplasts
[11] = test system: ZFN 29732 (synthetic); settings: pair 29732/29730, D-genome, donor pDAS000152 10:1, SEC protoplasts; A 6717, B 6306
[12] = test system: ZFN 34481 (synthetic); settings: pair 34480/34481, A-genome; B 11946, D 11790; wheat protoplasts
[13] = test system: ZFN 34471 (synthetic); settings: pair 34470/34471, A-genome; B 156139, D 134694; wheat protoplasts
[14] = test system: ZFN 34479 (synthetic); settings: pair 34478/34479, A-genome; B 2731, D 3069; wheat protoplasts
[15] = test system: ZFN 34457 (synthetic); settings: pair 34456/34457, A-genome; B 1716, D 10399; wheat protoplasts
[16] = test system: ZFN 34477 (synthetic); settings: pair 34476/34477, A-genome; B 56001, D 44459; wheat protoplasts
[17] = test system: ZFN 34475 (synthetic); settings: pair 34474/34475, A-genome; B 251142, D 202711; wheat protoplasts
[18] = test system: ZFN 34456 (synthetic); settings: pair 34456/34457, A-genome; B 1716, D 10399; wheat protoplasts

## ACGCCGACGCGGCCGGACGCGCGGGCGT (double strand) [34472 site]
[1]
  activity (NHEJ events per million reads): 120000

## CGACCATGGGGATGGAGTCGAGGAGNGC (double strand) [34482 site]
[2]
  activity (NHEJ events per million reads): 28700

## GCGACGCAGACGCCGACGCGGCCGGACG (double strand) [34476 site]
[3]
  activity (NHEJ events per million reads): 48300

## GGCCGGACGCGCGGGCGTANCCGGACGC (double strand) [34470 site]
[4]
  activity (NHEJ events per million reads): 178000

## ACCATGGGGATGGAGTCGAGGAGNGCGT (double strand) [34480 site]
[5]
  activity (NHEJ events per million reads): 11800

## CATCACGGGCCAGGTCCCCCGCCGCATG (double strand) [34483 site]
[6]
  activity (NHEJ events per million reads): 28700

## CAGACGCCGACGCGGCCGGACGCGCGGG (double strand) [34474 site]
[7]
  activity (NHEJ events per million reads): 248000

## GCGTCGCCACCTCCGGCCCGGGGGCCAC (double strand) [34473 site]
[8]
  activity (NHEJ events per million reads): 120000

## AGGCAGCACGTGCTCCTGATGCGGGACT (double strand) [29730 site]
[9]
  activity (ppm NHEJ editing): 7910

## GGGATGGAGTCGAGGAGNGCGTCNGCGA (double strand) [34478 site]
[10]
  activity (NHEJ events per million reads): 3070

## GATCCCAAGCGGTGGTGCTTTCAAGGAC (double strand) [29732 site]
[11]
  activity (ppm NHEJ editing): 7910

## CCATCACGGGCCAGGTCCCCCGCCGCAT (double strand) [34481 site]
[12]
  activity (NHEJ events per million reads): 11800

## CGTCGGCGTCTGCGTCGCCACCTCCGGC (double strand) [34471 site]
[13]
  activity (NHEJ events per million reads): 178000

## TGGTCGCCATCACGGGCCAGGTCCCCCG (double strand) [34479 site]
[14]
  activity (NHEJ events per million reads): 3070

## ACCTCCCCCGCCGTCGCATTCTCNGGCG (double strand) [34457 site]
[15]
  activity (NHEJ events per million reads): 12600

## CCTCCGGCCCGGGGGCCACCAACCTCGT (double strand) [34477 site]
[16]
  activity (NHEJ events per million reads): 48300

## GTCGCCACCTCCGGCCCGGGGGCCACCA (double strand) [34475 site]
[17]
  activity (NHEJ events per million reads): 248000

## CNGCGGCCATGGCGGCGGCGAGGGTTTG (double strand) [34456 site]
[18]
  activity (NHEJ events per million reads): 12600

From US20140304853
